Consider 2 molecules from patent US20230417748A1.

Where “and” joins values, the source holds several entries; their conditions need not be identical. Equal values may be shown once.

The assay deals with SARS-CoV-2 (2019-nCoV) Spike Protein (S1+S2 ECD, His tag) (Sino Biological, 40589-V08B1) (SARS-CoV-2), P0DTC2. The conditions noted are these: remark: other sources report otherwise.

B1: clone 5E9 (antibody, V domains shown)
VH: EVQLVESGGGLVQPGGSLRLSCAASGFTFTTYDMGWVRQAPGKGPEWVSLISSGGSNTWYDDSVKGRFTISRDNSKNTLYLQMNSLRAEDTAVYYCAKEKYPYSDCDYWGQGTLVTVSS
Take B1: the O.D. is 0.892 O.D. and 0.904 O.D.

B2: clone 6D9 (antibody, V domains shown)
VH: EVQLVESGGGLVQPGGSLRLSCAASGFTFTDYDMGWVRQAPGKGPEWVSLISGDSGNTWYDDSVKGRFTISRDNSKNTLYLQMNSLRAEDTAVYYCAKYRGTTKDYWGQGTLVTVSS
For the molecule B2, the O.D. was 0.997 O.D. and 0.991 O.D.
